According to patent publication US5945513:

Target: soluble recombinant human gp39 (CD8-gp39 fusion protein) (murine; human)

CD40-Ig (modified by L234F, L235E and G237A in the immunoglobulin domain) (from UniProt P25942) (Fc fusion)
inhibition of shgp39/IF5 or shgp39/PMA driven tonsillar B cell proliferation: 50 % inhibition
